Reference: US6475717

Legend:
human IL-1-beta (human) = human IL-1-beta (human) (UniProt P01584); assay: control in IL-4R/Fc sandwich ELISA; hu IL-1 β at 16.6 ng/ml
human TNF-alpha (human) [1] = molecular target: human TNF-alpha (human) (UniProt P01375); assay: control in IL-4R/Fc sandwich ELISA; hu-TNF α as printed (Genzyme B1089) at 50 ng/ml
human IL-1-alpha (human) = molecular target: T1, human IL-1-alpha (human) (UniProt P01583); assay: control in IL-4R/Fc sandwich ELISA; hu IL-1 α at 7.5 ng/ml
T1 sequence (looked up): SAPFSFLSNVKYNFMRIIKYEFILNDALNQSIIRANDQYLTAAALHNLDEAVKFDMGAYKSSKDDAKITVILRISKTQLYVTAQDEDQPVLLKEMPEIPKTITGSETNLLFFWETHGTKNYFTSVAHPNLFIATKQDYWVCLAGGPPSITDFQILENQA

human IL-2 (human) = human IL-2 (human) (UniProt P60568); assay: control in IL-4R/Fc sandwich ELISA; hu IL-2 at 5000 IU/ml
human IL-7 (human) = molecular target: T2, human IL-7 (human) (UniProt P13232); assay: control in IL-4R/Fc sandwich ELISA; hu IL-7 at 50 ng/ml
T2 sequence (looked up): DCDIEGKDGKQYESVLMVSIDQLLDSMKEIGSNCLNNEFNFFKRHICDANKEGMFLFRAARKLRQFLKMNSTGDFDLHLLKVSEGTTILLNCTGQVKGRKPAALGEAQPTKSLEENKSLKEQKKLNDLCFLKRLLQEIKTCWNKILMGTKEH

human IL-6 (human) = human IL-6 (human) (UniProt P05231); assay: control in IL-4R/Fc sandwich ELISA; hu IL-6 at 5000 IU/ml
[2] = molecular target: T3, murine recombinant IL-4 (Immunex, Lot 2871-023) (murine) (UniProt P07750); assay: control in IL-4R/Fc sandwich ELISA; mu IL-4 at 50 ng/ml
T3 sequence (looked up): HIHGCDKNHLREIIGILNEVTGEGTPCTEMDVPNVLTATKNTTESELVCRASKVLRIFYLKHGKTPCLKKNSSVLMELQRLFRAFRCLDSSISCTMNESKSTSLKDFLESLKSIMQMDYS

human TNF-alpha (human) [3] = molecular target: human TNF-alpha (human) (UniProt P01375); assay: control in IL-4R/Fc sandwich ELISA; hu-TNF α (Immunex) at 50 ng/ml
[4] = molecular target: T4, murine IL-1-beta (murine) (UniProt P10749); assay: control in mu IL-4R/Fc sandwich ELISA; mu IL-1 β at 10 ng/ml
T4 sequence (looked up): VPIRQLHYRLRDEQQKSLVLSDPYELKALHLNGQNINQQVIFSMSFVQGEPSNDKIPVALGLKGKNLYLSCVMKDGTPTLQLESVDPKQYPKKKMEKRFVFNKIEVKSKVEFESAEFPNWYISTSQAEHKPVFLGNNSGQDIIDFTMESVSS

[5] = molecular target: murine TNF-alpha (murine) (UniProt P06804); assay: control in mu IL-4R/Fc sandwich ELISA; mu-TNF α at 100 ng/ml
[6] = molecular target: human recombinant IL-4 (Immunex, Lot 1898-022) (human) (UniProt P05112); assay: control in mu IL-4R/Fc sandwich ELISA; hu IL-4 at 50 ng/ml
[7] = molecular target: T5, murine IL-1-alpha (murine) (UniProt P01582); assay: control in mu IL-4R/Fc sandwich ELISA; mu IL-1 α at 100 IU/ml
T5 sequence (looked up): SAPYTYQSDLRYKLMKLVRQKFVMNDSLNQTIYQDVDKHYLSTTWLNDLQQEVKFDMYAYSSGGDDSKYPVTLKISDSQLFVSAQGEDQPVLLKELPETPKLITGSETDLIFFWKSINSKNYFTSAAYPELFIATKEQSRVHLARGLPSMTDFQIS

Measured: concentration determined from the extinction

UniProt P01375, sequence (P01375 77-233 limits assumed): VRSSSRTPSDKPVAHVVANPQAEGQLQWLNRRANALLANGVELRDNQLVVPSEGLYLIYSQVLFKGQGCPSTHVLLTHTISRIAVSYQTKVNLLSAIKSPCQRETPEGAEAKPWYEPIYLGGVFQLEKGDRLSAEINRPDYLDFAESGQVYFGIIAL
UniProt P01584, sequence (P01584 117-269 limits assumed): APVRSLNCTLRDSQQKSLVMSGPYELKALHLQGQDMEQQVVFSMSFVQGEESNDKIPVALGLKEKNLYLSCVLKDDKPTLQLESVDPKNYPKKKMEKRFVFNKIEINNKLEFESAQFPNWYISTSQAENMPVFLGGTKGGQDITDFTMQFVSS
UniProt P06804, sequence (P06804 80-235 limits assumed): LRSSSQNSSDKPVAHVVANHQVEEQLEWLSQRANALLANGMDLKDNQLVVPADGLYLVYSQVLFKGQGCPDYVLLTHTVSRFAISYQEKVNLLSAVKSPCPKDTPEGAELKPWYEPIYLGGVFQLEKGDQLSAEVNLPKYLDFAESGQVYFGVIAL
UniProt P60568, sequence (P60568 21-153 limits assumed): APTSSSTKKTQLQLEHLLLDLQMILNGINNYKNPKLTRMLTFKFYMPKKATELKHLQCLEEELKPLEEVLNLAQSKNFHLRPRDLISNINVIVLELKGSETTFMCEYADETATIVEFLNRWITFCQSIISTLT
UniProt P05112, sequence (P05112 25-153 limits assumed): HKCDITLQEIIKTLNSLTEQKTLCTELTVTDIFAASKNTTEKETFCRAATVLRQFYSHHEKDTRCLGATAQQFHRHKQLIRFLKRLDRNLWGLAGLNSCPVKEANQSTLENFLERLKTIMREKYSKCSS
UniProt P05231, sequence (P05231 30-212 limits assumed): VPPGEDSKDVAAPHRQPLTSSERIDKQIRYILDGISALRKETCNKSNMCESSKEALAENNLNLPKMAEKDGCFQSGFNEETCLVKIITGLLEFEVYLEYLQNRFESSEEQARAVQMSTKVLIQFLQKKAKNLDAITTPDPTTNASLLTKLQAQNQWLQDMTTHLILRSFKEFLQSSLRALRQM

human IL-4 receptor/immunoglobulin Fc fusion protein (from UniProt P24394 26-232)
not listed: [4] | [5] | [6] | [7]
< 31 pg/mL: all other assays above

B1: murine IL-4 receptor/immunoglobulin Fc fusion protein (Fc fusion, UniProt P16382 26-233, looked up, not shown: small tags and cut ends)
chain: IKVLGEPTCFSDYIRTSTCEWFLDSAVDCSSQLCLHYRLMFFEFSENLTCIPRNSASTVCVCHMEMNRPVQSDRYQMELWAEHRQLWQGSFSPSGNVKPLAPDNLTLHTNVSDEWLLTWNNLYPSNNLLYKDLISMVNISREDNPAEFIVYNVTYKEPRLSFPINILMSGVYYTARVRVRSQILTGTWSEWSPSITWYNHFQLPLIQR
< 31 pg/mL: [4] | [5] | [6] | [7]
